Laboratory results from patent US11912789B2, “Peptide activating agent” (Interk Peptide Therapeutics Limited, priority 2018, dated 2024).
Non-standard residues stand in square brackets, D forms with d. Residues, ends and D or L forms follow the SMILES beside them. No end group written: not given here. ξ: configuration not given here. ξGly(decyl) = CCCCCCCCCCC(N)C(=O)O; 2Adod = 2-amino-dodecanoic acid

Key:
[1] = molecular target: T1, Lck (Homo sapiens, UniProt P06239); experiment: In vitro Lck activation kinase study (Eurofins); format: biochemical
T1 construct: purchased Eurofins Pharma Discovery Services UK Limited
T1 sequence (P06239 whole entry): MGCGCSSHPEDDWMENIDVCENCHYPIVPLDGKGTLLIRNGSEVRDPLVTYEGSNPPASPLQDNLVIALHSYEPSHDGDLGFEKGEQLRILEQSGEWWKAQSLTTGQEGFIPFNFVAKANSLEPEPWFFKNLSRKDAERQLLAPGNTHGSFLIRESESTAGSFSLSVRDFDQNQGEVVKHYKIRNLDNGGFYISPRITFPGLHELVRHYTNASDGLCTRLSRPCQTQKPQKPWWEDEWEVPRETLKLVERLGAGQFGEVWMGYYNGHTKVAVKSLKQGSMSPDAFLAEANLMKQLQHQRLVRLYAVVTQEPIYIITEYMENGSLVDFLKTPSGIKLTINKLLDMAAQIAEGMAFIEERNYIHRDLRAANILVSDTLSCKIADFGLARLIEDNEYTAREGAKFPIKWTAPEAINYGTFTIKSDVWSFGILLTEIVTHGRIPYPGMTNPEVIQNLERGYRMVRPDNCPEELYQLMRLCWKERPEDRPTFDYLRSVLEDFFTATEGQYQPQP
Description: (§1) The ability of polypeptides of the present invention to activate Lck was examined in vitro. Lck is member of the Src family of tyrosine kinases. In vitro Lck activation kinase studies were conducted by Eurofins Pharma Discovery Services UK Limited (Dundee Technology Park, Dundee, United Kingdom) using ATP concentrations within 15 μM of the apparent Km in the presence of peptide substrate (KVEKIGEGTYGVVYK; (SEQ ID NO: 63)) and test polypeptide in semi-log dose ranges. All results in Examples X percentage Lck activity relative to control (100%).
(§2) The ability of polypeptides of the present invention to activate Src family kinases was examined in vitro. Lck activation studies were carried out as described above and all Lck activity values are shown as percentage relative to control. In brief, Table 4 and Table 5 illustrate the selective activation of Lck kinase amongst the Src family kinases in the presence of the peptide RSKAKNPLY at 10 μM concentration.
The effect of modification of cationic amino acid positions and substitutions of the peptide RSKAKNPLY was examined. In brief, peptides with amino acid sequence changes compared to the peptide Pep9 (RSKAKNPLY) were assessed for the ability to stimulate Lck activity. All results are shown as percentage relative to control (100%).
Lck activity was evaluated as described in Example 1 and all Lck activity values are shown as percentage relative to control (100%). For ease of description, the polyamide moiety is referred to by “nCy” wherein n is the number of repeating units of the polyamide moiety, Cy is the number of carbon atoms of the R group in each repeating unit, and each R group is a saturated, linear carbon chain. Thus, in the present example, “4C10” is to be taken to refer to a polyamide moiety as shown in Scheme 1 above which has 4 repeating units (n=4) in which the R group of each repeating unit is a saturated, carbon side chain that is 10 carbon atoms in length (e.g. four 2-amino dodecanoic acids).

[2] = molecular target: T2, Hck (Homo sapiens, UniProt P08631); experiment: In vitro Src family kinase activation study (Eurofins); format: biochemical; details: Table 5
T2 construct: purchased Eurofins Pharma Discovery Services UK Limited
T2 sequence (P08631 whole entry, species assumed): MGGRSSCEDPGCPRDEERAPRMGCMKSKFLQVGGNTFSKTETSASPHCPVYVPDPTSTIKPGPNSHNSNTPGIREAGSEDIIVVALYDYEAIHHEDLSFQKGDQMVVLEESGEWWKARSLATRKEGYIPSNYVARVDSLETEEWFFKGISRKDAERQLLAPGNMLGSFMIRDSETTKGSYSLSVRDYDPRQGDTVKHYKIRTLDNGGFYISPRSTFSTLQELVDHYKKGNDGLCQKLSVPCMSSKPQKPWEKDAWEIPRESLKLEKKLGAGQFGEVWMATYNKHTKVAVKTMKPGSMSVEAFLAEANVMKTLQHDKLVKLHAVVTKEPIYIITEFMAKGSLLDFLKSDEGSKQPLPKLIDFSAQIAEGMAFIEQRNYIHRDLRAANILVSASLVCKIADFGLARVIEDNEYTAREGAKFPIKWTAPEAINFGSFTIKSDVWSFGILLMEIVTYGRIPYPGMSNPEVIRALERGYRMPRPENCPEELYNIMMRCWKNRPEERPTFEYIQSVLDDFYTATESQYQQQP
Description: as §1
The ability of polypeptides of the present invention to activate Src family kinases was examined in vitro. Lck activation studies were carried out as described above and all Lck activity values are shown as percentage relative to control. […]

[3] = molecular target: T3, Blk (Homo sapiens, UniProt P51451); experiment: as above; format: biochemical; details: Table 5
T3 construct: purchased Eurofins Pharma Discovery Services UK Limited
T3 sequence (P51451 whole entry, species assumed): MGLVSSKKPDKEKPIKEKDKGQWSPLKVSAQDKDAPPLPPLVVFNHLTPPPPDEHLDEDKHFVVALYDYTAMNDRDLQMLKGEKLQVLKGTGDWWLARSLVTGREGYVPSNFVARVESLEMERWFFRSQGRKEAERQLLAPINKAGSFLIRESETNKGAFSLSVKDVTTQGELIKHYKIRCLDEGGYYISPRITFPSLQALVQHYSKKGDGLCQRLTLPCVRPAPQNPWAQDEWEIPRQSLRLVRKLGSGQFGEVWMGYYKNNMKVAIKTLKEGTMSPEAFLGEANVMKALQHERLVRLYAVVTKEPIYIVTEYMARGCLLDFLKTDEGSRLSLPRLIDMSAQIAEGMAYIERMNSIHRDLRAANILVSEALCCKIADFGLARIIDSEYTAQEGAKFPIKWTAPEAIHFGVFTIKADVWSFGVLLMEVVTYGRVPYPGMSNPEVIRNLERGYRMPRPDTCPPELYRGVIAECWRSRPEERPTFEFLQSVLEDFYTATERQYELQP
Description: as §1, §2

[4] = molecular target: T4, Yes (Homo sapiens, UniProt P07947); experiment: as above; format: biochemical; details: Table 5
T4 construct: purchased Eurofins Pharma Discovery Services UK Limited
T4 sequence (P07947 whole entry, species assumed): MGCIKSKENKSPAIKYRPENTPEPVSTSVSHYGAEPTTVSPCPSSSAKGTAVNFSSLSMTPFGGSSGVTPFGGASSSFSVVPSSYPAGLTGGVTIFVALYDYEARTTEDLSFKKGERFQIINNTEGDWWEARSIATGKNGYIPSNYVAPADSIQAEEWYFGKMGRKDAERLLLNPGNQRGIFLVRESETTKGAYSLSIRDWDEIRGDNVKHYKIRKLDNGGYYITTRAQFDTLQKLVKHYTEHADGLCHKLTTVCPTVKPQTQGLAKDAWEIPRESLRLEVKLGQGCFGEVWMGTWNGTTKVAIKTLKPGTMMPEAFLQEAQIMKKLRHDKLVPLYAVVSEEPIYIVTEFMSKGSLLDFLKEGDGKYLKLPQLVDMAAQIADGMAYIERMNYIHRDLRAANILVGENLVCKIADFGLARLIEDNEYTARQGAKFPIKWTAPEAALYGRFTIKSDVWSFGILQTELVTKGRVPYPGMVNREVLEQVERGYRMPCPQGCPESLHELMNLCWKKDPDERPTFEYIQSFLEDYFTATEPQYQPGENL
Description: as §1, §2

[5] = molecular target: T5, Fyn (Homo sapiens, UniProt P06241); experiment: as above; format: biochemical; details: Table 5
T5 construct: purchased Eurofins Pharma Discovery Services UK Limited
T5 sequence (P06241 whole entry, species assumed): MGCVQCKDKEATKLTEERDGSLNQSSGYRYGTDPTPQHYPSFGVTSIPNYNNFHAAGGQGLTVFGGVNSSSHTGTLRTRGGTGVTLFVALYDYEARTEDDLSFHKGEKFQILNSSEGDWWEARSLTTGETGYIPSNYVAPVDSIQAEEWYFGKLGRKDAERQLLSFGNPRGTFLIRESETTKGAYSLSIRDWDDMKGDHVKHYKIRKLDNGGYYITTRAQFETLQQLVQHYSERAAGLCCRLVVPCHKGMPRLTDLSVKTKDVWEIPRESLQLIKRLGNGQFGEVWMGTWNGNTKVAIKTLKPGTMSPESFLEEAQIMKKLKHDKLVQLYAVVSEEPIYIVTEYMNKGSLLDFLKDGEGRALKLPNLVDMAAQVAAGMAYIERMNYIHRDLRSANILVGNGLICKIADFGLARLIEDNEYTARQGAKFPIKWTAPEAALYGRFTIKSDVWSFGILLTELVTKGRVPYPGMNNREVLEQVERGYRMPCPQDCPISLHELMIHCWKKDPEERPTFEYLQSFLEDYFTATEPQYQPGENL
Description: as §1, §2

[6] = molecular target: T6, Fgr (Homo sapiens, UniProt P09769); experiment: as above; format: biochemical; details: Table 5
T6 construct: purchased Eurofins Pharma Discovery Services UK Limited
Description: as §1, §2

[7] = molecular target: T7, Lyn (Homo sapiens, UniProt P07948); experiment: as above; format: biochemical; details: Table 5
T7 construct: purchased Eurofins Pharma Discovery Services UK Limited
T7 sequence (P07948 whole entry, species assumed): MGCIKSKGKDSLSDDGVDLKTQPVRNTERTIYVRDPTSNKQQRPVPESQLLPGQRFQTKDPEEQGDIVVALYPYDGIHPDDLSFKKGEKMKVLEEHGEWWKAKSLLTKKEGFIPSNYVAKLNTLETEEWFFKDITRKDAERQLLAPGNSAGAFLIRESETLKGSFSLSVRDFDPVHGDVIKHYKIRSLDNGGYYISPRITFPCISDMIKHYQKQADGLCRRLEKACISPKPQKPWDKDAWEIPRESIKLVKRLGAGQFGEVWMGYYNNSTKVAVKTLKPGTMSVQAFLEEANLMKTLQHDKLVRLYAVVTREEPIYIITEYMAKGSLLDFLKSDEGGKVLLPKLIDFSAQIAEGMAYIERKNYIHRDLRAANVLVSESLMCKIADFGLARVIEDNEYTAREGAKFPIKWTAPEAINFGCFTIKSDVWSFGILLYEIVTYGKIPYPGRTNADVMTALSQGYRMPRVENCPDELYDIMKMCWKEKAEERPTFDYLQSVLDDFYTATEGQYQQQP
Description: as §1, §2

[8] = molecular target: T8, cSRC (Homo sapiens, UniProt P12931); experiment: as above; format: biochemical; details: Table 5
T8 construct: purchased Eurofins Pharma Discovery Services UK Limited
Description: as §1, §2

[9] = molecular target: T9, Lck(h) (Homo sapiens, UniProt P06239); experiment: Western blot of Lck auto-phosphorylation at Y394 (anti-pY394 Lck); format: biochemical; details: 10 μM and 30 μM; ATP, no peptide substrate; FIG. 2
T9 construct: purchased Eurofins Pharma Discovery Services UK Limited
T9 sequence (P06239 whole entry): as the sequence (P06239 whole entry) above
Description: Western blot studies were performed by Eurofins Pharma Discovery Services UK Limited (Dundee, United Kingdom). In brief, Lck(h) was incubated in the presence of test peptide employing standard KinaseProfiler™ reaction conditions (Eurofins Pharma Discovery Services UK Limited) and an ATP concentration within 15 μM of the Km. Reactions were allowed to proceed for 40 minutes at room temperature before being stopped by the addition of SDS-sample buffer. In each case the Lck enzyme was diluted to yield 20 ng per 25 μl reaction. Appropriate controls in the absence of compound and peptide were also run as well as an untreated sample of both the Lck(h) and Lck(h) activated kinases. The resulting samples were then subjected to SDS-PAGE and western blot analysis using the antibodies 4G10 (anti-phospho-tyrosine antibody) (see FIG. 3) and anti-pY394 Lck (R&D Systems MAB7500) (see FIG. 2). An additional blot using the secondary detection antibody (anti-mouse-HRP) was also performed. The membranes were stained by Ponceau S to verify sample loading and effective protein transfer. The 4G10 antibody is a general anti-phospho-tyrosine antibody and there are several tyrosine residues in Lck but only one auto-phosphorylating tyrosine residue, i.e., at position Y394. […] Samples were as follows (numbers correspond to the lanes on the gel): • 1. Molecular weight markers • 2. […]

[10] = test system: wild-type Jurkat cells; experiment: IL-2, IL-12 secretion and IL-2Ra expression in Jurkat cells (anti-CD3/anti-CD28), ELISA; format: cell-based, human; details: 48 hours; for IL-2 secretion: Biotin-CD3, CD28 and avidin stimulation, supernatant ELISA, FIG. 14, FIG. 42A; for IL-12 secretion: Biotin-anti-CD3, anti-CD28 and avidin, FIG. 42B
Description: Cells were seeded at 1 million per well (12 well plate, 2 mL volume) and stimulated with Biotin-CD3, CD28, and avidin (5:5:1.25 μg). The cells were then treated with RSKAKNPLYR-(2Adod)4-NH2 at three concentrations as indicated plus vehicle control. The samples were then incubated for 48 hours at 37° C. after which supernatants were analysed for IL-2 content by ELISA.
Shown are Jurkat wild type (WT) cells and Lck deficient Jurkat cells (JCaM1.6) stimulated with anti-CD3/anti-CD28. 12 well plates were coated with anti-CD3 (5 μg/mL) solution made up in PBS (200 μL) and incubated at 37° C. overnight. The next day the anti-CD3 solution was aspirated and wells gently washed twice with media (1 mL, 10 minutes). Jurkat cells (WT and Lck Deficient) were seeded at 1 million per well in anti-CD3 coated 12 well plates, further stimulated with anti-CD28 (5 ug/mL) and at time zero treated with RSKAKNPLYR-(2Adod)4-NH2 (2.5 μM). Cells were incubated for 72 hours. For the IL-2 assay, left, supernatants were analysed for IL-2 content by ELISA. For the IL-2Ra assay, right, cells were lysed with 100 μL of lysis solution containing protease and phosphatase inhibitors as well as PP2 (10 μM). The collected cell lysates were subjected to the BCA protein assay. Cell lysates (40 μg protein) were then analysed for IL-2Ra by ELISA.
In two separate experiments, 5 million unstimulated JCam1.6 (Lck deficient) and 5 million 6.1 (WT) Jurkat cells, respectively, were seeded in T25 flasks. The cells were treated with RSKAKNPLYR-(2Adod)4-NH2 at 5 μM, 10 μM and 20 μM concentrations for 1 hour after which the cell suspensions were centrifuged and washed twice with fresh media. For each experiment, a mixture of Biotin-anti-CD3 and Avidin (5:1.25 ug) in 500 μL of media was added to the wells of a 12 well plate. After 10 minutes the unstimulated, washed cells were seeded at 1 million cells per well and the cell suspension made up to 2 mL volume with media. The samples were then further stimulated with anti-CD28 (5 ug/mL), after which the samples were incubated for 48 hours at 37° C. The supernatants (100 μL, n=3), were then analyzed for IL-2 content.
12 well plates were coated with anti-CD3 (5 μg/mL) solution made up in PBS (200 μL) and incubated at 37° C. overnight. […] Cells were incubated for 24 hours and supernatants were then analysed for IL-2 by ELISA.
12 well plates were coated with anti-CD3 (5 μg/mL) solution made up in PBS (200 μL) and incubated at 37° C. overnight. […] Cell lysates (40 μg protein) were then analysed for IL-2Ra by ELISA.
12 well plates were coated with anti-CD3 (5 μg/mL) solution made up in PBS (200 μL) and incubated at 37° C. overnight. […] Cells were incubated for 72 hours and the supernatants were then analysed for IL-2 by ELISA. […]

## DSEAENPLYD-(2Adod)4-NH2 (DSEAENPLYD-{2Adod-2Adod-2Adod-2Adod-NH2}) [DSEAENPLYD-(2-Adod)4-NH2, anionic residues at 1, 3, 5, 10 in place of Arg and Lys]
[1]; cationic versus anionic residues
  Lck activation (FIG. 30): does not increase the activity of Lck

## CCCCCCCCCCC(N)C(=O)NC(CCCCCCCCCC)C(=O)NC(CCCCCCCCCC)C(=O)NC(CCCCCCCCCC)C(=O)O (stereo not drawn) [H-(2Adod)4-OH] (H-[ξGly(decyl)][ξGly(decyl)][ξGly(decyl)][ξGly(decyl)]-OH)
[1]; Table 7
  Lck activation above control (1 μM): 0%
[1]; 10 μM, Table 7
  Lck activation above control (10 μM): 0%

## RSKAKNPLYR-(2Adod)4-OH (RSKAKNPLYR-{2Adod-2Adod-2Adod-2Adod-OH}) [… coupled to four 2-amino dodecanoic acid residues, non-amidated]
[1]; Table 9
  Lck activation above control (1 μM): 252%
[1]; 10 μM, Table 9
  Lck activation above control (10 μM): 395%

## RVKVKVVVV
[2]; 1 μM
  Lck Activity (1 μM), kinase Hck: 0%
[2]; 10 μM
  Lck Activity (10 μM), kinase Hck: 0%
[3]; 1 μM
  Lck Activity (1 μM), kinase Blk: 0%
[3]; 10 μM
  Lck Activity (10 μM), kinase Blk: 0%
[4]; 1 μM
  Lck Activity (1 μM), kinase Yes: 0%
[4]; 10 μM
  Lck Activity (10 μM), kinase Yes: 0%
[5]; 1 μM
  Lck Activity (1 μM), kinase Fyn: 0%
[5]; 10 μM
  Lck Activity (10 μM), kinase Fyn: 0%
[6]; 1 μM
  Lck Activity (1 μM), kinase Fgr: 0%
[6]; 10 μM
  Lck Activity (10 μM), kinase Fgr: 0%
[7]; 1 μM
  Lck Activity (1 μM), kinase Lyn: 0%
[7]; 10 μM
  Lck Activity (10 μM), kinase Lyn: 0%
[8]; 1 μM
  Lck Activity (1 μM), kinase c-Src: 0%
[8]; 10 μM
  Lck Activity (10 μM), kinase c-Src: 0%

## CCCCCCCCCCC(N)C(=O)O (stereo not drawn) [H-(2Adod)1-OH]
[1]; Table 7
  Lck activation above control (1 μM): 0%
[1]; 10 μM, Table 7
  Lck activation above control (10 μM): 0%

## RSKAKNPLYR
[9]
  auto-phosphorylation of Lck at Y394: does not increase
[10]
  IL-2 secretion: increase IL-2 secretion
  IL-12 secretion: not

## CCCCCCCCCCC(N)C(=O)NC(CCCCCCCCCC)C(=O)O (stereo not drawn) [H-(2Adod)2-OH]
[1]; Table 7
  Lck activation above control (1 μM): 0%
[1]; 10 μM, Table 7
  Lck activation above control (10 μM): 18%

## CCCCCCCCCCC(N)C(=O)NC(CCCCCCCCCC)C(=O)NC(CCCCCCCCCC)C(=O)O (stereo not drawn) [H-(2Adod)3-OH]
[1]; Table 7
  Lck activation above control (1 μM): 0%
[1]; 10 μM, Table 7
  Lck activation above control (10 μM): 0%

## RSKAKNPLYR-1C10-OH (RSKAKNPLYR-{2Adod-OH}) [… coupled at the C-terminal end toone 2-amino dodecanoic acid residue]
[1]; 10 μM, Table 8
  Lck Activity 10 μM: 221%
[1]; 30 μM, Table 8
  Lck Activity 30 μM: 277%

## RSKAKNPLY
[9]
  auto-phosphorylation of Lck at Y394: induces a dose-dependent auto-phosphorylation of Lck
[10]
  IL-2 secretion: increase IL-2 secretion
  IL-12 secretion: increase IL-12 secretion
